Test: label from the status in PepcDB records

MSQMSPGQARVVDPILSTHARGYRQSTLIGKKLFPVAPVAQYGGKILTFGKEAFRLYNTKRAPGANTKRIDFGYEGDPYSIVPSALEAKVPRELMRDASQVPGIDLGARSVNTVLRIMALAHEHECAQIALDPAKYNADHKVKLVGSARWTSPDSDPTKDVETAKEAIADSIGMEPNRLMLSRKALSACKYHPKLIERVKYTRAESITIDMLKALWEVEEIVVGTARVATGANDSFGDVWGPDVWLGYVSDNPDPSVEEPSFGYTYQIEGHPLVEVPYWDNNAKSWIYGVSDDNTPALSGMLAGYLIEDAGLPAALEHHHHHH
protein production: not failed

MIIIELNKRQEHIIQIVKDHGPITGESIAAQLGLTRATLRPDLAILTMAGYLEARPRVGYFYTGKTGGQLLSEAVKKIKVQDYQSRPVVIDKNVSVYDAICTMFLEDVGTLFVVDQSTLLVGVVSRKDLLRASLGKQDLTSLPVNIIMTRMPNIAMCRREDSLYDIAMELIERQIDAMPVVKDTKQGLEVVGRITKTNITRAFVNLVNNE
protein production: failed

MLKALKKIFGKADGTQPQSGSSPVPQGPAGATAKGTAPTGEKPTEKRPRKPRPPRADNESGAPRAAEKAEKAEKPAKPAGKEGRDAKPRTDKPRRERKPKPVDNWKLEDFVVEPQEGKTRFHDFNLAPSLMHAIHDLGFPYCTPIQAQVLGFTLRGQDAIGRAQTGTGKTAAFLISIITQLLQTPPPKERYMGEPRALIIAPTRELVVQIAKDAAALTKYTGLNVMTFVGGMDFDKQLKQLEARFCDILVATPGRLLDFNQRGEVHLDMVEVMVLDEADRMLDMGFIPQVRQIIRQTPHKGERQTLLFSATFTDDVMNLAKQWTVDPAIVEIEPENVASDTVEQHVYAVAGSDKYKLLYNLVAQNNWERVMVFANRKDEVRRIEERLTKDGISAAQMSGDVPQHKRIRTLEGFREGKIRVLVATDVAGRGIHIDGISHVINFTLPEDPDDYVHRIGRTGRAGASGTSISFAGEDDAFALPPIEELLGRKITCEMPPAELLKPVPRKH
protein production: failed

MRIVIVGGSKFGVATAEQLIDKGHEVVLIDKNREKLEALTDRLDCGMIQGDGSSPKVLREAYAEENDVLVALTNASDDNILTALVARSVGFGRVIPQIVEAELLDVCVELDLKDTITPHVTVARSICRALEEDTELARDTNLTGDLRLLRLSVTSQLSGCSLSELDLPDECRAVAIVHEDREKFADPDAVVSEGEDILFAVHEDRVADLKALFATS
protein production: failed

DIVARLQTQASATVAIPKEHHRFVIGKNGEKLQDLELKTATKIQIPRPDDPSNQIKITGTKEGIEKARHEVLLISAEQDKR
protein production: not failed

MVKNGIILGKRYEVISKIGAGGMADVYKGKDHMLNRYVAIKVLKKEFKEDENFVRKFRSEAQAAAGLIHPNVVNVYDVGEDRGLYYMVMELVEGITLKEYIDKKGRLSHKETISIAIQMCTGIGVAHAANIIHRDIKPQNIIISKDGKVKVTDFGIAKATTSNTISSNAMGSVHYTSPEQARGGFSDQKSDIYSIGITLYEMVTGQVPFDGDSTVSVAIKHLQEEITPPSEIVPDIPYSLEQIILKCTQKNGERRYRNTGELIQDLKRSLVDPDGDFVVIPPLGNADTVIITDEELDDIRSSYDDEEEFDEYDEDEYGDEEEFDEYDEDDDEYDEYDDDEEYGGKGKKGKSSDDVNPRMKKVMKILTIVVAIIIVFILVFAIGKAAGIFKGGFGIDTVDTDEKTKVKVPNVVGMTEDEAKKTLNKKGLGFKVVAREESKKYEEGTVSKQKTEAGKRVAKNTTIQVVVSSGLVGDEITVPNVSNMSESEAQKALEDAGFEKITSDFAYSDSVAEGDVIGTTPAANARATKDTEIVMKVSKGSEKKTVPNVVGQQDGDAQNAITAAGLTVGTVTYEYYDDVPKGQVVSQTVAGGKKVAPGTSVGLTISSGPKPPEKVSVPPVTGISIEEARALLDGVGLKADIKYDSETVGTVGQVIKCNPGVGTQVDEGSTVTLIVISKSSQPDGGETESTQ
protein production: failed

MLEDHHLYKAAIEHSPIGIGLCAPKGRFLDVNRALCALTGHEAQALRARDLFDLCHPDYAARTRERVEALLAGEQDALSLETRFVRPDGSTVWVQADLALARAEAGDGQDGHLIVQVQDVTARRLALESLQASEQRLAYVLDGAGLGTFDWSMRVRHVSFNRRTAEMLGYAHDELSTDPQDWFAMVHPQDAVLSVRRIYRHLRGDADSFEVEQRLRNQEGQWVWMSARGRVTQRDALGIAVRVSGTLQDVTRRRAMLDQAHHLALHDPLTDLPNARLLRDRLFVAIQAARRAGSLVAVVFVDLDRFKPVNDEYGHGVGDLVLKATAMRLRSGLRASDTVARLGGDEFVAVLTHCQTRDDVEQTVERLIEQLQAPFRVEGHVLSMGVSAGVALYPSDGRDAQTLIRCADAAMYEVKRAGGNDFGFHASLNYERLMSMRQRGPDPDGGADGR
protein production: failed

MERHQHLLSEYQQILTLSEQMLVLATEGNWDALVDLEMTYLKAVESTANITISSCSSLMLQDLLREKLRAILDNEIEIKRLLQLRLDRLSDLVGQSTKQQAVNNTYGQFPDHALL
protein production: not failed

MTTKDISRPVCILGLGLIGGSLLRDLHAANHSVFGYNRSRSGAKSAVDEGFDVSADLEATLQRAAAEDALIVLAVPMTAIDSLLDAVHTHAPNNGFTDVVSVKTAVYDAVKARNMQHRYVGSHPMAGTANSGWSASMDGLFKRAVWVVTFDQLFDGTDINSTWISIWKDVVQMALAVGAEVVPSRVGPHDAAAARVSHLTHILAETLAIVGDNGGALSLSLAAGSYRDSTRVAGTDPGLVRAMCESNAGPLVKALDEALAILHEAREGLTAEQPNIEQLADNGYRSRIRYEARSGQRRAKESVSPTITSSRPVLRLHPGTPNWEKQLIHAETLGARIEVF
protein production: not failed

EMFYFEPVNIKKYLGSIGSELSDEVITIEQFFNLNSEYITIIDARSPREFSEKTISNAVNIPLFLTEEYETIGKLYKHEGKEVAIAKAGIIIQDGIKRIVSESLKLDPNKNLVVFCARGGMRSQSIATILKLLGFKVKRLVGGFKSYNISKT
protein production: failed

MTSYIILKHLHMTTAYLTITLFALRLLLDAVGRPGWRQTPLRFIPHINDTILLVAAIALVFVAGYASAMPGWLITKIVLLFGYIIAGVFALKTTVGKPARIVAAVLALVQVSAIFHLAMAKPF
protein production: failed

MFDNLQRKFLNLIGIEIEEEDKPQESTKAKEENVKPKHETPKVVTIGKANQTEVTVYNLKLFDEVVKVCDALRENKIVVFNLEQVAEDHIQRIIDFVSGAVYVLDAKIHKVSKKIFVVVPRSIDLEVDEQLKEEFRTKGVFAWLK
protein production: failed

MSGFDLIIFDCDGVLVDSEIIAAQVESRLLTEAGYPISVEEMGERFAGMTWKNILLQVESEASIPLSASLLDKSEKLLDMRLERDVKIIDGVKFALSRLTTPRCICSNSSSHRLDMMLTKVGLKPYFAPHIYSAKDLGADRVKPKPDIFLHGAAQFGVSPDRVVVVEDSVHGIHGARAAGMRVIGFTGASHTYPSHADRLTDAGAETVISRMQDLPAVIAAMAEWEGAF
protein production: not failed

MLVMIDTKRPPVYIDSQVGLNTFFLIRGRYPSLNLFVSFITTVKTLGNNVSRTHGDDAESDRVSNVDENNEAVDEQDNIEDDKTDEDEKEGDNEDGDGYDDYQGDDESMGGSTLDPTIDGSESSDEDCDYNKWNDVIVEEYGMLRRTSFSHQGNSVVCWQSVRTQVSVYLTEITFLTRVTVHQL
protein production: failed

AGHRGQCVGRHREVVAIDNSKATNPHAADSALAGFSSVVWVAGGQLKGAEIDELIVRHAGRIKAVALLGVDRDVIEDSVRTHIPGIPVLSVSETDPRRAMDEAVAWSVSQAEAGDAIVLAPAAASLDMYTGMGQRGDMFATAIAQHLHD
protein production: failed

MLSKFIKTTLATSLLITLSACSNLKSPVPPAKKADQEKLYESTKNYNALIAMYRADLKHFKDPMTQFKLAKSYYHIGDSKSSVLYLKPLRFTKQPFNNEIELLYIRNLIQLGKYQEAQTVATDLIKMSPQNSEAYNLRGISSAQQGELAKAEQDMNKARELFINDVVAINNIAMLNILNNDYRNAVNLLLPQYLNGSKDSRLIHNLVFALVKSGDIDYATDIIRKESLYASPEDLINALKNTEKAPKVGR
protein production: failed

MMYFISDTHFYHENIINLNPEVRFKGFEIVILTNLLKVLKPEDTLYHLGDFTWHFNDKNEYLRIWKALPGRKILVMGNHDKDKESLKEYFDEIYDFYKIIEHKGKRILLSHYPAKDPITERYPDRQEMVREIYFKENCDLLIHGHVHWNREGIKCACKDYRIECINANVEWNDYKPISEREIDKLISYEKAKN
protein production: not failed

MPAKQPTPKQEPATKAGRCLARSFMKTLIKDCSVSAIVAGSIATTISYAGPLVIIFHAAEAAGLSHQQLSSWVWAVSMGSALLGALLSLRYRVPVVIAWSIPGSALLVTALPQLGLEQAVGAYLVANLVLLLIGISGAFDRIIARLPGSIAAGMQAGILFSFGIEVFRALPVQPLLVLAMFVTYVLMRRVQPRYAVAAVLGVGMLVTVASGTLRSEALVLELASPQWITPQFSLSAVFSLALPMVLVALTGQFMPGMAVLRNAGYPTPASPLISASALIGVLLAPFGCHGLNLAAVTASLCTGHEAHENPQRRYVAAVAGSVLYLLLGIAGATLMSLFAAFPAVLIAALAGLALYGAISEALVRSLAEPAERDAGLFTFLVTASGVAFLGLSAAFWGLLFGLLAHALLRLRQPRAREVLRRTP
protein production: not failed

MDNLTHYLATTLRTLRHQRGWSLSRLAEISGVSKAMLGQIERNESSPTVATLWKIATGLNVPFSVFISPPQAEFPPTFDPQQQAMVITPLFPWDPELCFDYFSLLLAPGTVSESTPHKAGVIEHVVVIQGRLDMCTGGVWQTIDAGKGLRFAGDTAHTYRNSSDQTVHFHSLIHYPRD
protein production: failed

MTESTGSTSQEQQVRGETMPDWEKRFRAPRVSLPDWAEDAPHRALFVSNATGTYELYAWDRTTGEQRQVTDRPNGTTDGVLSPDGEWIWWFDDTDGDEFGIWRRQRFTGGGTADGPDEPAADGLEPSYPAGLAIGRDGGTAVVGRSTDEDGSTVHVVRAGQEPVEIYRHRESAGVGDLSHDGSLIAVEHTEHGDAMHSALRVLRLDGSTVAELDDTKGGSVELGLEVLGFAPVDGDTRLLIGHQRRGRWEPLVWDVASGEETDLALELPGDVGAEWYPDGSALLVAHSFEARSELFRYDLASRELVRVPTPAGTVSGATARPDGSVEYLWSSAAEPSVVRSTSGGIVLDPPGMKSPGSVPVEDVWVEGPGGRVHALVQRPAGASGPLPTVFDIHGGPTWHDSDSFAAGPAAWLDHGYAVVRVNYRGSTGYGREWTDALKHRVGLIELEDIAAVREWAVSSGLADPDRLILTGGSWGGYLTLLGLGTQPDAWTIGIAAVPVADYVTAYHDEMEALKAMDRTLLGGTPEEVPERFEASSPLTYVDAVKAPVYISAGVNDPRCPIRQVENYVERLTARDAVHEVYRYDAGHGSLVVDERIKQVRLELEFAERHLGR
protein production: failed

MKQEEEPWIDHLKQRVNEYEKPLPENDWNHFQTEFFTPYLHKRRRMKTMRIAAVFFLIFIPFATTFYFLQTEKHEAASPVVSLPACQPRSITGSPSIMPENKLLQDRTKSKTASLTRPPIQTSIHTDTANNIETECMPPVQDTIRDTESVHKRPSGHKHFALPYKRSGYTLALAISAGNNGASTGFINKTFSRGDIGSSHKDEIMYWSDFKDYLQEYPSDFPDAQAYEALLQIANDNTGRPMTEYTHYNLPVSIELSLRKSISRHWGVSAGLQYTYLSSESSIGEDSKWVKRQKLHYIGLSVKLDRRLYTTRTFSFYATGGGTIDKSVSGKLEQDFIVQKEKIYSSTENLKIKPFQFSIHAALGIQYNINPTLGAFIEPGTVFYFKDGSFKNTIRDKHPLHFNLQLGVRWNY
protein production: failed

MIDTIIISLIAFSILVSLWRGFISEVLSLSGWIAAFFVASTFYPYLSSYLNEIDSVYLQNSEYLRNGIAAAILFIITLILCGIVNALLSKIINTTGLSATDRVLGIAFGALRGILIVAAILFFIDTFTTSNQTELWQESQLIPHFDFIVKWFFEQLQANSSFLNSTTTTK
protein production: failed
